# Laboratory results taken from patent US20170355769A1 (AbbVie / Abbott, published 2017).
# T1: Mouse B7-H3 on cells (mouse, UniProt Q8VE98 29-316)
# T1 construct: whole, on cells
# T1 sequence (looked up): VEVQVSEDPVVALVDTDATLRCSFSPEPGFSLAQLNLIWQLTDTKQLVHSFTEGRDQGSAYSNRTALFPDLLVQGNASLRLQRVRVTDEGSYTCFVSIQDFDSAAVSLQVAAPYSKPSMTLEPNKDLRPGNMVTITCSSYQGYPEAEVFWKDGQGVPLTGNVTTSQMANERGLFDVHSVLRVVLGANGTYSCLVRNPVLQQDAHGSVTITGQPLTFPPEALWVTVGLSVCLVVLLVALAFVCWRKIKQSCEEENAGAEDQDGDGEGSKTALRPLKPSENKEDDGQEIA
# T2: Human full length B7-H3 (human, UniProt Q5ZPR3 29-534)
# T2 construct: On 3T12 fibroblasts expressing full length human B7-H3 or on NCI-H1650 cells; signal peptide residues 1-28 stated; also called huB7-H3; CD276
# T2 sequence: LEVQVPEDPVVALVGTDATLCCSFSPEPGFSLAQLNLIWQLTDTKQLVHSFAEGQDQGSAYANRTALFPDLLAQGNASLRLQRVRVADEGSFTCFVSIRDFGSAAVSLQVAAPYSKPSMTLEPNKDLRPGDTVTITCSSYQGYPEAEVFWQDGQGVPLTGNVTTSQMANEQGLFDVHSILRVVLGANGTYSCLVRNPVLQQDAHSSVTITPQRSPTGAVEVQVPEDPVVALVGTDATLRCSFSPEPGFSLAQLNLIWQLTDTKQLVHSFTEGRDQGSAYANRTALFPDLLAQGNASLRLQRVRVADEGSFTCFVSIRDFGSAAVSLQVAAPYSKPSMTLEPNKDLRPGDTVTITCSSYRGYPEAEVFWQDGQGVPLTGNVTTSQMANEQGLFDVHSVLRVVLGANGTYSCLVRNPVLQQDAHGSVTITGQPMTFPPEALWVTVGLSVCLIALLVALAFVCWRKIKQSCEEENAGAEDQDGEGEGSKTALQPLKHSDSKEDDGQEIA
# T3: Cyno B7-H3-ECD (his tag) (cynomolgus)
# T3 construct: SPR analyte; also called soluble ECD of cyno B7-H3
# T3 chain: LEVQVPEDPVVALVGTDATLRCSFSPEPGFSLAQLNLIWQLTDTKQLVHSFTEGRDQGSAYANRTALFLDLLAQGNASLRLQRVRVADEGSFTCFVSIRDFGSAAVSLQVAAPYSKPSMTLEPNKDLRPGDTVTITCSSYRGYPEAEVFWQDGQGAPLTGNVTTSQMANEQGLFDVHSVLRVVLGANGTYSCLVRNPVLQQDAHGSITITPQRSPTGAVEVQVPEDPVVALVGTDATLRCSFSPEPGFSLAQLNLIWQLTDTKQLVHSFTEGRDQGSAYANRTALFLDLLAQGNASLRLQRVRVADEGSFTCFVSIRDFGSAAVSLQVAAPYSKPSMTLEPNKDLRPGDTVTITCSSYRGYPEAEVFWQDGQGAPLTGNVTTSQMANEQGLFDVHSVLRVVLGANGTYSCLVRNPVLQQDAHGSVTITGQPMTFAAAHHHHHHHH
# T4: Human B7-H3-ECD (His tag) (human, UniProt Q5ZPR3 29-461)
# T4 construct: SPR analyte; also called huB7-H3; soluble ECD of human B7-H3
# T4 sequence: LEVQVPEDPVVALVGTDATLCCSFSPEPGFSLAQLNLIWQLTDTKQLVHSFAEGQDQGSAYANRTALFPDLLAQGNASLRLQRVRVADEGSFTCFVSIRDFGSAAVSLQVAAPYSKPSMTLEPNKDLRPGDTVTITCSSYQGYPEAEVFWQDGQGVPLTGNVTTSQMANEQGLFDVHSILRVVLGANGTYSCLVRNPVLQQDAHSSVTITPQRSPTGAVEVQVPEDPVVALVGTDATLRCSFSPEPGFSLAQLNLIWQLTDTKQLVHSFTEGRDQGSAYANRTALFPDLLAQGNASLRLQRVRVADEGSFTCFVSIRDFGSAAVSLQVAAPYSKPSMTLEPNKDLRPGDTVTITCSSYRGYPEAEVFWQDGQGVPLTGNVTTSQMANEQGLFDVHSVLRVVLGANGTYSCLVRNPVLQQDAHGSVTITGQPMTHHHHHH
# Tests used:
# Mouse B7-H3 on cells = target: T1, Mouse B7-H3 on cells; test: FACS, 3T12 transfectants
# Method: (§1) A selection of hits were subcloned using the MoFlo (Beckman, Indianapolis, Ind., US) by depositing a single cell per well into 96 well cell culture plates to ensure clonality of the cell line. Resulting colonies were screened for specificity by FACS using mouse 3T12 fibroblast cell lines expressing the human B7-H3, cynomolgous B7-H3 or mouse B7-H3. Isotype of each monoclonal antibody was determined using the Mouse Monoclonal Isostyping Kit (Roche, No. 11-493-027-001, Indianapolis, Ind., USA).
# Human full length B7-H3 [1] = target: T2, Human full length B7-H3; test: FACS, 3T12 transfectants
# Method: as §1
# [2] = target: T5, Cynomolgous B7-H3 on cells (cynomolgus); test: FACS, 3T12 transfectants
# T5 construct: whole, on cells; also called cyB7-H3; cyno B7-H3
# Method: as §1
# Cyno B7-H3-ECD (his tag) = target: T3, Cyno B7-H3-ECD (his tag); test: SPR, mAb captured, ECD analyte
# [3] = target: T4, Human B7-H3-ECD (His tag); test: SPR, mAb captured, ECD analyte
# Human full length B7-H3 [4] = target: T2, Human full length B7-H3; test: FACS (Example 6 method)
# Method: Cells were harvested from flasks when approximately 80% confluent using Gibco® Cell Dissociation Buffer. Cells were washed once in PBS/1% FBS (FACS buffer) then resuspended at 2.5×10⁶ cells/mL in FACS buffer. 100 μL of cells/well were added to a round bottom 96-well plate. 10 μL of a 10× concentration of mAb/ADC (final concentrations are indicated the figures). Wells were washed twice with FACS buffer and resuspended in 50 μL of secondary Ab (AlexaFluor 488) diluted in FACS buffer. The plate was incubated at 4° C. for one hour and washed twice with FACS buffer. Cells were resuspended in 100 μL of PBS/1% formaldehyde and analyzed on a Becton Dickinson LSRII flow cytometer. Data was analyzed using WinList flow cytometry analysis software.
# The parental chAb18 from which the variants were derived was also tested as a comparator.
EC50 (Mouse B7-H3 on cells),EC50 (Human full length B7-H3 [1]),EC50 [2],Kd (Cyno B7-H3-ECD (his tag)),koff (Cyno B7-H3-ECD (his tag)),kon (Cyno B7-H3-ECD (his tag)),Kd [3],koff [3],kon [3],binding result (Mouse B7-H3 on cells),EC50 (Human full length B7-H3 [4]),Binder
–,1.59 nM,1.53 nM,410 nM,0.012 s⁻¹,28000 M⁻¹ s⁻¹,840 nM,0.01 s⁻¹,12000 M⁻¹ s⁻¹,no binding,–,"Ab6 (antibody, mouse IgG1, V domains shown, mouse IgG1/k) VH: QVQLQQSGAELMKPGASVKISCKATGYTFSRYWIEWVKQRPGHGLEWIGEILPGSGSTNYNEKFKGKATFTADTSSNTAYMQVSSLTSEDSAVHYCARRGYGYVPYALDYWGQGTSVTVSS VL: EIQMTQTTSSLSASLGDRVTISCRASQDISNSLNWYQQKPDGTVNLLIYYTSRLYSGVPSRFSGSGSGTDYSLTISNLEQEDIATYFCQQGNTLPYTFGGGTKLEIK"
–,–,–,–,–,–,–,–,–,–,1.98 nM,"huAb18v8-CZ (antibody, V domains shown, synthon CZ on reduced interchain Cys, ADC, DAR 2.6) VH: EVQLVQSGAEVKKPGSSVKVSCKASGYSFTSYTIHWVRQAPGQGLEWIGYINPNSRNTDYNQKFKDRTTLTADRSTSTAYMELSSLRSEDTAVYYCARYSGSTPYWYFDVWGQGTTVTVSS VL: DIQLTQSPSFLSASVGDRVTITCRASSSVSYMNWYQQKPGKAPKPWIYATSNLASGVPSRFSVSGSGTEHTLTISSLQPEDFATYYCQQWSSNPLTFGQGTKLEIK"
–,–,–,–,–,–,–,–,–,–,1.27 nM,"huAb18v3-CZ (antibody, V domains shown, synthon CZ on reduced interchain Cys, ADC, DAR 2.4) VH: EVQLVQSGAEVKKPGSSVKVSCKASGYSFTSYTIHWVRQAPGQGLEWIGYINPNSRNTDYNQKFKDRTTLTADRSTSTAYMELSSLRSEDTAVYYCARYSGSTPYWYFDVWGQGTTVTVSS VL: DIQLTQSPSFLSASVGDRVTITCRASSSVSYMNWYQQKPGKSPKPWIYATSNLASGVPSRFSVSVSGTEHTLTISSLQPEDFATYYCQQWSSNPLTFGQGTKLEIK"
–,–,–,–,–,–,–,–,–,–,2.25 nM,"huAb18v2-CZ (antibody, V domains shown, synthon CZ on reduced interchain Cys, ADC, DAR 1.8) VH: EVQLVQSGAEVKKPGSSVKVSCKASGYSFTSYTIHWVRQAPGQGLEWMGYINPNSRNTDYAQKFQGRVTLTADKSTSTAYMELSSLRSEDTAVYYCARYSGSTPYWYFDVWGQGTTVTVSS VL: DIQLTQSPSFLSASVGDRVTITCRASSSVSYMNWYQQKPGKAPKLLIYATSNLASGVPSRFSGSGSGTEFTLTISSLQPEDFATYYCQQWSSNPLTFGQGTKLEIK"
–,–,–,–,–,–,–,–,–,–,0.9 nM,"huAb18v4-CZ (antibody, V domains shown, synthon CZ on reduced interchain Cys, ADC, DAR 2.5) VH: EVQLVQSGAEVKKPGSSVKVSCKASGYSFTSYTIHWVRQAPGQGLEWMGYINPNSRNTDYAQKFQGRVTLTADKSTSTAYMELSSLRSEDTAVYYCARYSGSTPYWYFDVWGQGTTVTVSS VL: DIQLTQSPSFLSASVGDRVTITCRASSSVSYMNWYQQKPGKSPKPWIYATSNLASGVPSRFSVSVSGTEHTLTISSLQPEDFATYYCQQWSSNPLTFGQGTKLEIK"

# The remaining lines, values behind:
Binder,EC50 (Mouse B7-H3 on cells),EC50 (Human full length B7-H3 [1]),EC50 [2],Kd (Cyno B7-H3-ECD (his tag)),koff (Cyno B7-H3-ECD (his tag)),kon (Cyno B7-H3-ECD (his tag)),Kd [3],koff [3],kon [3],binding result (Mouse B7-H3 on cells),EC50 (Human full length B7-H3 [4])
"Ab17 (antibody, mouse IgG2b, V domains shown, mouse IgG2b/k) VH: EVKLVESGGGLVQPGGSLKLSCAASGFTFSSYIMSWVRQTPEKRLEWVASIVSSNITYYPDSMKGRFTISRDNARNILYLQMSSLKSEDTAMYYCARSGTRAWFAYWGQGTLVTVSA VL: DIVLTQSPASLAVSLGQRATISCRASKSVSTSAYSYMHWYQQKPGQPPKLLIYLASNLESGVPARFSGSGSGTDFTLNIHPVEEEDAATYYCQHSRELPYTFGGGTKLEIK",2.39 nM,2.75 nM,2.6 nM,≤ 0.019 nM,≤ 1e-05 s⁻¹,510000 M⁻¹ s⁻¹,0.034 nM,1.9e-05 s⁻¹,540000 M⁻¹ s⁻¹,–,–
"huAb18v10-CZ (antibody, V domains shown, synthon CZ on reduced interchain Cys, ADC, DAR 2.7) VH: EVQLVQSGAEVKKPGSSVKVSCKASGYSFTSYTIHWVRQAPGQGLEWMGYINPNSRNTDYAQKFQGRVTLTADKSTSTAYMELSSLRSEDTAVYYCARYSGSTPYWYFDVWGQGTTVTVSS VL: DIQLTQSPSFLSASVGDRVTITCRASSSVSYMNWYQQKPGKAPKPWIYATSNLASGVPSRFSVSGSGTEHTLTISSLQPEDFATYYCQQWSSNPLTFGQGTKLEIK",–,–,–,–,–,–,–,–,–,–,1.19 nM
"huAb18v1-CZ (antibody, V domains shown, synthon CZ on reduced interchain Cys, ADC, DAR 2.6) VH: EVQLVQSGAEVKKPGSSVKVSCKASGYSFTSYTIHWVRQAPGQGLEWMGYINPNSRNTDYNQKFKDRVTITADKSTSTAYMELSSLRSEDTAVYYCARYSGSTPYWYFDVWGQGTTVTVSS VL: DIQLTQSPSFLSASVGDRVTITCRASSSVSYMNWYQQKPGKAPKLLIYATSNLASGVPSRFSGSGSGTEFTLTISSLQPEDFATYYCQQWSSNPLTFGQGTKLEIK",–,–,–,–,–,–,–,–,–,–,1.27 nM
"Ab11 (antibody, mouse IgG1, V domains shown, mouse IgG1/k) VH: EVKLVESGGGLVQPGGSLRLSCATSGFTFTNYYMSWVRQPPGKALEWLGFIRNKANDYTTEYSASVKGRFTISRDNSQSILYLQMNTLRAEDSATYYCARESPGNPFAYWGQGTLVTVSA VL: DIVMTQSPSSLTVTAGEKVTMTCKSSQSLLNSGTQKNFLTWYQQKPGQPPKLLIYWASTRESGVPDRFTGSGSGTDFTLTISSVQAEDLAVYFCQNDYIYPLTFGAGTKLELK",569 nM,23.4 nM,2.03 nM,2.6 nM,7.2e-05 s⁻¹,27000 M⁻¹ s⁻¹,45 nM,0.00089 s⁻¹,20000 M⁻¹ s⁻¹,–,–
"Ab2 (antibody, mouse IgG1, V domains shown, mouse IgG1/k) VH: QVQLQQPGAELVKPGASVKLSCKASGYTFTSYWMHWVKQRPGQGLEWIGMIHPDSGTTNYNEKFRSKATLTVDKSSSTAYMQLSSLTSEDSAVYYCAVYYGSTYWYFDVWGTGTTVTVSS VL: DVVMTQTPLSLPVSLGDQAYISCRSSQSLVHINGNTYLHWYRQKPGQSPKLLIYKVSNRFSGVPDRFSGSGSGTDFTLKISRVEAEDLGVYFCSQSTHFPFTFGSGTKLEIK",1 nM,1.7 nM,1.5 nM,50 nM,0.011 s⁻¹,230000 M⁻¹ s⁻¹,24 nM,0.0029 s⁻¹,120000 M⁻¹ s⁻¹,–,–
